Reference: IntAct's records for PubMed 10854325

B1: Interleukin-1 receptor-associated kinase 1 (Mus musculus), Q62406 (parent)
chain: MAGGPGPGEPVVPGAQHFLYEVPPWVMCRFYKVMDALEPADWCQFAALIVRDQTELRLCERSEQRTASVLWPWINRNARVADLVHILTHLQLLRARDIITAWHPPAPVVPPSTAAPRPSSISAGSEAGDWSPRKLQSSASTFLSPAFPGSQTHSESELLQVPLPVSLGPPLPSSAPSSTKSSPESPVSGLQRAHPSPFCWPFCEISQGTCNFSEELRIGEGGFGCVYRAVMRNTTYAVKRLKEEADLEWTMVKQSFLTEVEQLSRFRHPNIVDFAGYCAESGLYCLVYGFLPNGSLEDQLHLQTQACSPLSWPQRLDILLGTARAIQFLHQDSPSLIHGDIKSSNVLLDERLMPKLGDFGLARFSRFAGAKASQSSTVARTSTVRGTLAYLPEEYIKTGRLAVDTDTFSFGVVILETLAGQRAVRTQGAKTKYLKDLIEDEAEEAGVTLKSTQPTLWVGVATDAWAAPIAAQIYKKHLDSRPGPCPPQLGLALAQLACCCMHRRAKKRPPMTQVYKRLEGLQAGPPWELEVAGHGSPSPQENSYMSTTGSAQSGDEPWQPLVVTTRAPAQAAQQLQRSPNQPVESDESVPGLSATLHSWHLTPGSHPSPASFREASCTQGGTTRESSVRSSPGFQPTTMEGSPTGSSSLLSSEPPQIIINPARQKMVQKLALYEEGVLDSLQLLSSGFFPGLDLEPEKSQGPEESDEFQS

Variants of: B1
Settings: with tolip_mouse Tollip

Row | effect of a mutation on the interaction | Variant
1 | decreasing interaction | T66A
